Experimental data as given in paper PMC8511049, “hSSB2 (NABP1) is required for the recruitment of RPA during the cellular response to DNA UV damage”.

Assays:
[1] = biological target: T1, hSSB2-OB (NABP1 OB domain) (human, UniProt Q96AH0 1-132); test: SPR competition; competes with immobilised biotinylated wild-type ssDNA; value only in figure; 2 mM MgCl2; SPR: 20 mM Tris pH 7.0, 50 mM NaCl, 2 mM MgCl2, 0.01% P20, 2 mM DTT; EMSA: 20 mM Tris pH 7.5, 100 mM NaCl, 1 mM DTT, 100 µg/mL BSA, 37 °C; agarose shift: 10 mM; details: protein: recombinant; tags: GST tag (pGEX-6P) removed by HRV3C protease; single strand
T1 sequence (Q96AH0 1-132): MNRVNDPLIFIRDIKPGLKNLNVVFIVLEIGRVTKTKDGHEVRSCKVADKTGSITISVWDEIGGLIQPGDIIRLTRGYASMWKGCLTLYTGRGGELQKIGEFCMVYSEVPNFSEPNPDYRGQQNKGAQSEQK

[2] = biological target: T1, hSSB2-OB (NABP1 OB domain); test: EMSA; SPR: 20 mM Tris pH 7.0, 50 mM NaCl, 2 mM MgCl2, 0.01% P20, 2 mM DTT; EMSA: 20 mM Tris pH 7.5, 100 mM NaCl, 1 mM DTT, 100 µg/mL BSA, 37 °C; agarose shift: 10 mM; details: protein: recombinant, tags: GST tag (pGEX-6P) removed by HRV3C protease, label: 32P
[3] = biological target: T1, hSSB2-OB (NABP1 OB domain); test: SPR competition; almost same affinity as undamaged GATTGC; value only in figure; 2 mM MgCl2; SPR: 20 mM Tris pH 7.0, 50 mM NaCl, 2 mM MgCl2, 0.01% P20, 2 mM DTT; EMSA: 20 mM Tris pH 7.5, 100 mM NaCl, 1 mM DTT, 100 µg/mL BSA, 37 °C; agarose shift: 10 mM; details: protein: recombinant; tags: GST tag (pGEX-6P) removed by HRV3C protease; single strand
[4] = biological target: T1, hSSB2-OB (NABP1 OB domain); test: SPR competition; competes with immobilised biotinylated wild-type ssDNA; 2 mM MgCl2; SPR: 20 mM Tris pH 7.0, 50 mM NaCl, 2 mM MgCl2, 0.01% P20, 2 mM DTT; EMSA: 20 mM Tris pH 7.5, 100 mM NaCl, 1 mM DTT, 100 µg/mL BSA, 37 °C; agarose shift: 10 mM; details: protein: recombinant; tags: GST tag (pGEX-6P) removed by HRV3C protease; blunt, central 2-nt mismatch (TT opposite CC; S3 positions 11-12)

GATTGC (ssDNA) [6mer GATTGC wild-type]
binding result [1]: binds

CCTCGAGGGATCCGTCCTAGCAAGCCGCTGCTACCGGAAGCTTCTGGACC (ssDNA) [50mer ssDNA (EMSA)]
binding result ([2]; single strand): binds

B1: 50 bp dsDNA (EMSA) (dsDNA)
DNA 1: CCTCGAGGGATCCGTCCTAGCAAGCCGCTGCTACCGGAAGCTTCTGGACC
DNA 2: GGTCCAGAAGCTTCCGGTAGCAGCGGCTTGCTAGGACGGATCCCTCGAGG
binding result ([2]; blunt): no binding

GATTGC (ssDNA, cyclobutane pyrimidine dimer between T3 and T4) [6mer GATTGC with CPD]
binding result [3]: binds

B2: 23mer duplex with 2-nt bubble (dsDNA)
DNA 1: CGAACGATCATTACTAGCTCCAA
DNA 2: TTGGAGCTAGTCCTGATCGTTCG
Ki [4]: 1000 nM
